From paper doi:10.1101/2020.06.24.168591

Biological target: E108D mutant of Thermoplasmatales archaeon SG8-52-1 heliorhodopsin (TaHeR) (Thermoplasmatales archaeon SG8-52-1)
Assay: crystal structure

stoichiometry N: 2
Substance: E108D mutant of Thermoplasmatales archaeon SG8-52-1 heliorhodopsin (TaHeR) (natural protein)
